Test results from patent US20230330253A1 (LANOVA MEDICINES, published 2023).

What was measured:
Assay in all cases: cell-based or functional assay
[1] = target: human claudin 18.2 (CLDN18.2) (human)
[2] = target: human claudin 18.2 (CLDN18.2) (human); remark: listed apart in the source
[3] = target: human claudin 18.2 (CLDN18.2) (human); remark: listed apart in the source

Row | Binder | Fluorescence, pHAb internalization on MKN45-CLDN18.2 cells, 20 nM antibody, normalized by DAR [1] | Fluorescence, pHAb internalization on MKN45-CLDN18.2 cells, 100 nM antibody, normalized by DAR [1] | EC50, ADCC Reporter Bioassay (luciferase, Jurkat FcγRIIIa V158/NFAT effector cells) [2] [nM] | EC50, ADCC Reporter Bioassay (luciferase) [3] [nM]
1 | 64G11B4 chimeric antibody (antibody, V domains shown) VH: QVQLHQSGTELVRPGTSVKVSCKASGYAFTNYLLEWVKQRPGQGLEWIGEINPGNGGSNYNEKFKGKATLTADKSSSTAYMQLSSLTSVDSAVYFCARIYYGNSFAYWGQGTLVTVSA VL: DIVMTQSPSSLTVTAGEKVTMNCKSSQSLLNSGNQRNYLTWYQQKPGQPPKLLIYWASTRESGVPDRFTGSGSGTDFTLTISSVQADDLAVYYCQNDYFYPFTFGAGTNLELK | 24000 | 33700 | 0.126 | –
2 | 78E8G9G6 chimeric antibody (antibody, V domains shown) VH: QVQLKESGPGLVAPSQSLSITCTVSGFSLISYGVHWVRQPPGKGLEWLGVIWAGGRTNYNSALMSRLSISKDNSKSQVFLKMNSLQTYDTAMYYCARDRYGGNSLDYWGQGTSVTVSS VL: DIVMTQSPSSLTVTAGEKVTMNCRSIQSLLNSGNQKNYLSWYQQKPGQPPKLLIYWASTRESGVPDRFTGSGSGTDFTLTIRSVLDEDLAVYYCQNSYSYPFTFGSGTKLEMK | 26800 | 41100 | 0.0159 | –
3 | 12F1F4 chimeric antibody (antibody, V domains shown) VH: QVQLKESGPGLVAPSQSLSITCTVSGFSLINYGVSWVRQPPGKGLEWLGVIWGDGNTNYQSALRSRLSIRKDTSKSQVFLKLNSVHTDGTATYYCAKVGRGNAMDHWGQGISVIVSS VL: DIVMTQSPSSLTVTARERVSMTCKSSQSLFNSGNQRNYLTWYQQKPGQPPKLLIYWSSTRESGVPDRFTGSGSGTDFTLTISSVQAEDLAIYFCQNNYYYPFTFGSGTKLEIK | 29500 | 43900 | 0.0368 | –
4 | 4F11E2 HC N55Q-LC S32A (humanized, PTM de-risked, No. 2) (antibody, V domains shown) VH: EVQLVESGGGLVQPGGSLRLSCAASGFTFSTFGMHWVRQAPGKGLEWVSYITSGQSPIYFTDTVKGRFTISRDNAKNSLYLQMNSLRAEDTAVYYCARSSYYGNSMDYWGQGTLVTVSS VL: DIVMTQSPDSLAVSLGERATINCRSSQSLLNAGNRKNYLTWYQQKPGQPPKLLIYWASTRESGVPDRFSGSGSGTDFTLTISSLQAEDVAVYYCQNAYSYPFTFGGGTKLEIK | – | – | – | 0.414
5 | 120B7B2 HC G57D&S104A-LC S32A&G97A (BG2001-E) (humanized, PTM de-risked, No. 7) (antibody, V domains shown) VH: QVQLVQSGAEVKKPGASVKVSCKASGYTFTGYIIQWVRQAPGQRLEWMGFINPYNDDTKYNEQFKGRVTITRDTSASTAYMELSSLRSEDTAVYYCARAYFGNAFAYWGQGTLVTVSS VL: DIVMTQSPDSLAVSLGERATINCKSSQSLLNAGNQKNYLTWYQQKPGQPPKLLIYWASTRESGVPDRFSGSGSGTDFTLTISSLQAEDVAVYYCQNAYYFPFTFGGGTKLEIK | 19200 | 31300 | – | 0.114
6 | 4F11E2 HC N55Q-LC N31E (humanized, PTM de-risked, No. 1) (antibody, V domains shown) VH: EVQLVESGGGLVQPGGSLRLSCAASGFTFSTFGMHWVRQAPGKGLEWVSYITSGQSPIYFTDTVKGRFTISRDNAKNSLYLQMNSLRAEDTAVYYCARSSYYGNSMDYWGQGTLVTVSS VL: DIVMTQSPDSLAVSLGERATINCRSSQSLLESGNRKNYLTWYQQKPGQPPKLLIYWASTRESGVPDRFSGSGSGTDFTLTISSLQAEDVAVYYCQNAYSYPFTFGGGTKLEIK | – | – | – | 0.238
7 | 72C1B6A3 HC WT-LC S32A (BG2001-D) (humanized, PTM de-risked, No. 5) (antibody, V domains shown) VH: QVQLVQSGAEVKKPGASVKVSCKASGYTFTTYPIEWVRQAPGQRLEWMGNFHPYNDDTKYNEKFKGRVTITRDTSASTAYMELSSLRSEDTAVYYCARRAYGYPYAMDYWGQGTLVTVSS VL: DIVMTQSPDSLAVSLGERATINCKSSQSLLNAGNQKNYLTWYQQKPGQPPKLLIYRASSRESGVPDRFSGSGSGTDFTLTISSLQAEDVAVYYCQNDYIYPYTFGGGTKLEIK | 26200 | 36500 | – | 0.191
8 | 4F11E2 HC N55E-LC S32A (BG2001-C) (humanized, PTM de-risked, No. 3) (antibody, V domains shown) VH: EVQLVESGGGLVQPGGSLRLSCAASGFTFSTFGMHWVRQAPGKGLEWVSYITSGESPIYFTDTVKGRFTISRDNAKNSLYLQMNSLRAEDTAVYYCARSSYYGNSMDYWGQGTLVTVSS VL: DIVMTQSPDSLAVSLGERATINCRSSQSLLNAGNRKNYLTWYQQKPGQPPKLLIYWASTRESGVPDRFSGSGSGTDFTLTISSLQAEDVAVYYCQNAYSYPFTFGGGTKLEIK | 19000 | 28200 | – | 0.148

Continued, values first:

Row | Fluorescence, pHAb internalization on MKN45-CLDN18.2 cells, 20 nM antibody, normalized by DAR [1] | Fluorescence, pHAb internalization on MKN45-CLDN18.2 cells, 100 nM antibody, normalized by DAR [1] | EC50, ADCC Reporter Bioassay (luciferase, Jurkat FcγRIIIa V158/NFAT effector cells) [2] [nM] | EC50, ADCC Reporter Bioassay (luciferase) [3] [nM] | Binder
9 | 7950 | 18900 | 0.459 | 0.158 | 175D10 (IMAB362; claudiximab) (antibody, V domains shown) VH: QVQLQQPGAELVRPGASVKLSCKASGYTFTSYWINWVKQRPGQGLEWIGNIYPSDSYTNYNQKFKDKATLTVDKSSSTAYMQLSSPTSEDSAVYYCTRSWRGNSFDYWGQGTTLTVSS VL: DIVMTQSPSSLTVTAGEKVTMSCKSSQSLLNSGNQKNYLTWYQQKPGQPPKLLIYWASTRESGVPDRFTGSGSGTDFTLTISSVQAEDLAVYYCQNDYSYPFTFGSGTKLEIK
10 | 23000 | 41300 | 0.0795 | – | 103F6D3 chimeric antibody (antibody, V domains shown) VH: QVQLQQSGAELARPGASVKMSCKASGYTFPTYSIHWLKQGPGQGLEWIGYINPNTIYTNYNQKFKYKTTLTADKSSSTAYIQLSSLTSDDSAVYYCAREGYGRGNAMDYWGQGTSVTVSS VL: DIVMTQSPSSQTVTAGEKVTLSCRSSQSLLNGGNQKNYLTWYQQKPGQPPKLLIYWASTRESGVPDRFTGSGSGTYFTFTISSVQAEDLAVYYCQNAYFYPFTFGAGTKLELK
11 | – | – | – | 0.493 | 120B7B2 HC G57D&S104A-LC-N96E&N31E (humanized, PTM de-risked, No. 6) (antibody, V domains shown) VH: QVQLVQSGAEVKKPGASVKVSCKASGYTFTGYIIQWVRQAPGQRLEWMGFINPYNDDTKYNEQFKGRVTITRDTSASTAYMELSSLRSEDTAVYYCARAYFGNAFAYWGQGTLVTVSS VL: DIVMTQSPDSLAVSLGERATINCKSSQSLLESGNQKNYLTWYQQKPGQPPKLLIYWASTRESGVPDRFSGSGSGTDFTLTISSLQAEDVAVYYCQEGYYFPFTFGGGTKLEIK
12 | – | – | – | 1.65 | 72C1B6A3 HC WT-LC N31E (humanized, PTM de-risked, No. 4) (antibody, V domains shown) VH: QVQLVQSGAEVKKPGASVKVSCKASGYTFTTYPIEWVRQAPGQRLEWMGNFHPYNDDTKYNEKFKGRVTITRDTSASTAYMELSSLRSEDTAVYYCARRAYGYPYAMDYWGQGTLVTVSS VL: DIVMTQSPDSLAVSLGERATINCKSSQSLLESGNQKNYLTWYQQKPGQPPKLLIYRASSRESGVPDRFSGSGSGTDFTLTISSLQAEDVAVYYCQNDYIYPYTFGGGTKLEIK
